What all share (assay): cleavage_in_vitro
The test system of data set [1] is T1, SspI-HF Y98F (Sphaerotilus species).
T1 sequence: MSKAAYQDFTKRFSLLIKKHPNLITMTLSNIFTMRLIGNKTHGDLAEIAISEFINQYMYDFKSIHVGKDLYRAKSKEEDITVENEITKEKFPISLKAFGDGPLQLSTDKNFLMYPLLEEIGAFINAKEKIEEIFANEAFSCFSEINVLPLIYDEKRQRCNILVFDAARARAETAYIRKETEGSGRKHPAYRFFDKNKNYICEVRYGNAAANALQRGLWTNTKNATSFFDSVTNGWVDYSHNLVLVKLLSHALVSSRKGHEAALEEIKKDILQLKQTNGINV
The conditions noted are these: NEB4, 37 C, Mg2+; FI NEB1-3: >=4000, 120, >=32.

Data set [2] deals with T2, SphI (Streptomyces phaeochromogenes).
T2 sequence: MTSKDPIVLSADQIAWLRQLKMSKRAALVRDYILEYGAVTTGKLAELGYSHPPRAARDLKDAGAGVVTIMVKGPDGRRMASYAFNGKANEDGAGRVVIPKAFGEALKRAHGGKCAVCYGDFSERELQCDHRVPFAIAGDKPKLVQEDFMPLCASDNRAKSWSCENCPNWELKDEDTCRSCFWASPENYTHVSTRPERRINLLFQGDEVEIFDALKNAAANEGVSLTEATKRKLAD
The following applies: NEB4, 37 C, Mg2+; FI NEB1-3: 64, 32, 64.

The target in data set [3] is EcoRI (Escherichia coli RY13) (UniProt P00642). The following applies: NEB4, 37 C, Mg2+; FI NEB1-3: 250, 4, 250.
Data set [4] concerns the target T3, BamHI (Bacillus amyloliquefaciens) (UniProt P23940).
T3 sequence: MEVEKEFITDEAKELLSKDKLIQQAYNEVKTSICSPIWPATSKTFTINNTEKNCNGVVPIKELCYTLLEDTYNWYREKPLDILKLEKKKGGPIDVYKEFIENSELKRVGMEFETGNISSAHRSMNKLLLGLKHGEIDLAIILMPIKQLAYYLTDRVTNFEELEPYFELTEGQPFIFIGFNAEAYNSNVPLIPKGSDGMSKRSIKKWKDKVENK
The following applies: NEB4, 37 C, Mg2+; FI NEB1-3: 4, 4, 32.

The subject of data set [5] is T4, SbfI-HF K251A (Streptomyces species Bf-61).
T4 sequence: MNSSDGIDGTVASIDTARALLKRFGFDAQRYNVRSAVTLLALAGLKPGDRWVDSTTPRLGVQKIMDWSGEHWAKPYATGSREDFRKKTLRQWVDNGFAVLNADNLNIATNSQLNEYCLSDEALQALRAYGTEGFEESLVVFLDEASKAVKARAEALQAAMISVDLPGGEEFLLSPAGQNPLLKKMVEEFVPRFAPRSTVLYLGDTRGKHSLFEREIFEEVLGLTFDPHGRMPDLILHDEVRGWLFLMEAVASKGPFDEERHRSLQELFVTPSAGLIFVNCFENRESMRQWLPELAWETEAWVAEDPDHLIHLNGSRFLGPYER
The following applies: NEB4, 37 C, Mg2+; FI NEB1-3: 1000, 120, 8.

Data set [6] has as its target T5, HpaI (Haemophilus parainfluenzae) (UniProt P29537).
T5 sequence: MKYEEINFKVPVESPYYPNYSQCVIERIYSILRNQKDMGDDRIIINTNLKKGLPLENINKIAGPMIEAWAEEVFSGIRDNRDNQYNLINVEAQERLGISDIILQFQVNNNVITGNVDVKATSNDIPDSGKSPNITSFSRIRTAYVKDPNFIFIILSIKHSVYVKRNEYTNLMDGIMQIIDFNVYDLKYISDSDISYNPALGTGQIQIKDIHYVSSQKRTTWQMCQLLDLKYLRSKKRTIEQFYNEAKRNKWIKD
The following applies: NEB4, 37 C, Mg2+; FI NEB1-3: 32, 1, 2.

As to lambda phage DNA, the activity (fidelity index) in data set [1] came to 500; in data set [2] it was 16; in data set [3], 4; in data set [4], 4; in data set [5], 250; in data set [6], 16.

The record behind these values is patent publication US20130115678.
